Results on 1 molecule are retold here after paper PMC6891888 (Immunity, 2019).

The target in the test is T1, HIV-1 Env on the cell surface (HIV-1, strain BG505 (clade A), wild type, UniProt Q2N0S6).
T1 construct: also called cell-surface HIV-1 Env; source: 293T, transfected, on cells
As to the kind of experiment: flow cytometry on cells. The settings on record: one partner purified.

B1: 1C2 (rabbit monoclonal antibody, IgG) (antibody, V domains shown)
VH: QSLEESGGDLVKPGASLTLTCTASGFSFGWNDYMSWVRQAPGKGLEWIGCIYAGSTRSTYYANWAKGRLTISKTSSTAVTLQMTSLTAADTATYFCARGAVTYDGLGGAYLKHFNLWGPGTLVTVSS
VL: AIKMTQTPSSVSAAVGGTVTVNCRASEDIESYLAWYQQKPGQPPKLLIYDTSKLASGVPSRFKGSGSGTQFALTISGVQCDDAATYYCLYGYISSDRIDFGFGGGTELVVK
notes: also called bNAb 1C2; vax-bNAb 1C2
In the case of B1, the binding result is recorded as “binds”.
